The record followed here is article PMC9244803, “Development and Optimization of Bifunctional Fusion Proteins to Locally Modulate Complement Activation in Diseased Tissue” (Frontiers in Immunology, 2022).

Assay [1] has as its target T1, Human C3d crystallised with Fab(3d8b) (human, UniProt P01024).
T1 construct: human C3d as in PDB 7UE9 chain C
Nature of the assay: crystal structure; Fab(3d8b):C3d complex, sitting-drop vapor diffusion at 20°C, PEG, pH 7.0 to 8.5; 1.75 Å; PDB 7UE9. Conditions: both partners purified.

For assay [2], the target named is T2, C3d deposited in the kidneys of CfH^-/- mice (mouse (endogenous in CfH^-/- mouse …, UniProt P01027)).
T2 construct: C3d-containing fragments of mouse complement C3 deposited in renal glomeruli; source: endogenous, kidney glomeruli of CfH^-/- mice
T2 sequence (P01027 1002-1303): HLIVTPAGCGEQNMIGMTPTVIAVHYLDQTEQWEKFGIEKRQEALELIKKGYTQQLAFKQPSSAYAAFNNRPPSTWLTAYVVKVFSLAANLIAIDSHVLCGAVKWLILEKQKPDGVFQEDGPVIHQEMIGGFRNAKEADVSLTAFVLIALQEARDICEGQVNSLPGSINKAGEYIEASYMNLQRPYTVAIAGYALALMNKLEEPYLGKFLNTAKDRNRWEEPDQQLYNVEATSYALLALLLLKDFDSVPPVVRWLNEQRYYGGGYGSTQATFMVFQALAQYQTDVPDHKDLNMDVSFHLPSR
The experiment in a line: immunostaining of cells or tissue; proteins injected into CfH^-/- mice; frozen kidney sections taken 7 or 14 days post-dose and stained with anti-Crry or anti-human IgG4. Particulars: one partner purified.

T1 sequence (P01024 1002-1303): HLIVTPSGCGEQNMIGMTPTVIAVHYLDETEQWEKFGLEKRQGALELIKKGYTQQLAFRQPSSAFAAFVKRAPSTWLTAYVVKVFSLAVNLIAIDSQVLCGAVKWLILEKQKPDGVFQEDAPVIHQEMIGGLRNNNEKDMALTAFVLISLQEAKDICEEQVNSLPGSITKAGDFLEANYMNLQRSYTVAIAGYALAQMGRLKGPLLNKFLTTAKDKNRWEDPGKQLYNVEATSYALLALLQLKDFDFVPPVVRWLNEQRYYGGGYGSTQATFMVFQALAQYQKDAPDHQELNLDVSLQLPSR

B1: humanized Fab(3d8b) (Fab, V domains shown)
VH: QVQLVQSGAEVKKPGASVKVSCKASGYTFTNYYINWVRQAPGQGLEWMGVINPYSGGTSYNQKFKGRVTMTVDTSTSTAYMELSSLRSEDTAVYFCSSPYWGQGTLVTVSS
VL: DVVMTQSPLSLPVTLGQPASISCKSSQSLLDSDGKTYLNWFQQRPGQSPRRLIYLVSKLDSGVPDRFSGSGSGTDFTLKISRVEAEDVGVYYCWQGTHFPRTFGGGTKVEIK
notes: heavy chain (H) of PDB 7UE9; light chain (L) of PDB 7UE9; CDRs of mouse clone 3d8b grafted onto a human framework; solved with an IgG4-derived Fab (PDB 5DK3) as search model; also called 3d8b Fab
Regarding B1, the binding result in assay [1] is recorded as “binds”.

B2: humanized C3d mAb (CDRs of 3d8b grafted onto human IgG4 S228P, L235E) (antibody, V domains shown)
VH: QVQLVQSGAEVKKPGASVKVSCKASGYTFTNYYINWVRQAPGQGLEWMGVINPYSGGTSYNQKFKGRVTMTVDTSTSTAYMELSSLRSEDTAVYFCSSPYWGQGTLVTVSS
VL: DVVMTQSPLSLPVTLGQPASISCKSSQSLLDSDGKTYLNWFQQRPGQSPRRLIYLVSKLDSGVPDRFSGSGSGTDFTLKISRVEAEDVGVYYCWQGTHFPRTFGGGTKVEIK
notes: humanised heavy variable region with the CDRs of 3d8b; as the variable region of the heavy chain of m3 (PDB 7UE9 chain H); human IgG4 heavy constant region, hinge stabilized and Fc-mutated; humanised light chain with the CDRs of 3d8b; as the light chain of m3 (PDB 7UE9 chain L); IgG4; source: CHO cells, transient, purified (Protein A or IMAC, SEC)
For the molecule B2, in assay [2], the binding result is given as “binds”.

B3: humanized C3d mAb-CR1_(1-10) (antibody, V domains shown)
VH: QVQLVQSGAEVKKPGASVKVSCKASGYTFTNYYINWVRQAPGQGLEWMGVINPYSGGTSYNQKFKGRVTMTVDTSTSTAYMELSSLRSEDTAVYFCSSPYWGQGTLVTVSS
VL: DVVMTQSPLSLPVTLGQPASISCKSSQSLLDSDGKTYLNWFQQRPGQSPRRLIYLVSKLDSGVPDRFSGSGSGTDFTLKISRVEAEDVGVYYCWQGTHFPRTFGGGTKVEIK
notes: humanised heavy variable region with the CDRs of 3d8b; as the variable region of the heavy chain of m3 (PDB 7UE9 chain H); human IgG4 heavy constant region, hinge stabilized and Fc-mutated; (Gly4Ser)2 linker; human complement receptor type 1 (CR1), the first 10 consensus repeats; humanised light chain with the CDRs of 3d8b; as the light chain of m3 (PDB 7UE9 chain L); also called lead fusion …
For B3, the binding result in assay [2] is listed as “binds”.
